Results on one molecule are retold here after patent CN114395044A (HEFEN TIANKPORT IMMUNOLOGICAL DRUG CO LTD, dated 2022).

In assay [1] the target is T1, 人B7H6 (ACRO biosystems, 货号B76-H52H8) (human, UniProt Q68D85 25-262).
T1 construct: Bought protein coated on the ELISA plate at 2 μg/mL; also called 人B7H6蛋白; B7H6抗原
T1 sequence (looked up): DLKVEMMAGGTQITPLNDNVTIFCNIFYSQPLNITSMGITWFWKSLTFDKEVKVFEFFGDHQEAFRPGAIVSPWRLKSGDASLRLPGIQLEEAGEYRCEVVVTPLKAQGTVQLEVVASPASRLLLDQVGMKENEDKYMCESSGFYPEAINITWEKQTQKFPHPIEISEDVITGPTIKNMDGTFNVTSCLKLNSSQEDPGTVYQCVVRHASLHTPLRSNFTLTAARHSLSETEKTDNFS
Briefly: ELISA, human B7H6 coated at 2 μg/mL, HRP rabbit anti-human IgG, OD450.

Assay [2] deals with T2, 人CD16a抗原 (ACRO biosystems, 货号CDA-H5220) (human, UniProt P08637 17-208).
T2 construct: Bought protein coated on the ELISA plate at 2 μg/mL; also called 人CD16a蛋白; CD16抗原
T2 sequence (P08637 17-208 limits assumed): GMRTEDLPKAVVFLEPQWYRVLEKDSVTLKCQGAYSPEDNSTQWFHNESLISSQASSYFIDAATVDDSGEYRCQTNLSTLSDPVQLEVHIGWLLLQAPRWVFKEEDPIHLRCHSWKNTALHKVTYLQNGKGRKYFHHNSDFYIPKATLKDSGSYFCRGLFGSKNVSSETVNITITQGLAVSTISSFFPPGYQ
The experiment in a line: ELISA, human CD16a coated at 2 μg/mL, HRP rabbit anti-human IgG, OD450.

B1: CD16×B7H6重组双特异性抗体 (bispecific antibody, human IgG1, L234A L235A)
chain 1: not shown
chain 2: DIVLTQTPLSLSVTPGQPASISCKASQSVDYDGDSYMNWYLQKPGQPPQLLIYAASTLHSGIPDRFSGSGSGTDFTLKISRVEAEDVGVYYCQQSKEDPRTFGQGTKLEIKGGGGSGGGGSGGGGSEVQLVQSGAEVKKPGASVKVSCKASGYTFTDYNMDWVRQAPGQGLEWIGDINPNNGGTLYNQKFRGRVTLTVDTSISTAYMELSRLRSDDTAVYYCARSEVFYGNYADYWGQGTTVTVSSEPKSCDKTHTCPPCPAPEAAGGPSVFLFPPKPKDTLMISRTPEVTCVVVDVSHEDPEVKFNWYVDGVEVHNAKTKPREEQYNSTYRVVSVLTVLHQDWLNGKEYKCKVSNKALPAPIEKTISKAKGQPREPQVCTLPPSRDELTKNQVSLSCAVKGFYPSDIAVEWESNGQPENNYKTTPPVLDSDGSFFLVSKLTVDKSRWQQGNVFSCSVMHEALHNHYTQKSLSLSPGK
notes: Heterodimer of two scFv-Fc chains (knob-into-hole); Expressed in ExpiCHO-S, purified on protein A; also called NKmab; CD16×B7H6双特异性抗体
With B1, the binding result in assay [1] and in assay [2] was “binds” each time.
